Data taken from patent publication US20200317816A1 (Novartis, published 2020).

B1: anti-FXI/FXIa antibody NOV1401 (antibody, human IgG1, lambda, V domains shown)
VH: QVQLLESGGGLVQPGGSLRLSCAASGFTFSTAAMSWVRQAPGKGLEWVSGISGSGSSTYYADSVKGRFTISRDNSKNTLYLQMNSLRAEDTAVYYCARELSYLYSGYYFDYWGQGTLVTVSS
VL: QSVLTQPPSASGTPGQRVTISCSGSSSNIGSNDVSWYQQLPGTAPKLLIYKNYNRPSGVPDRFSGSKSGTSASLAISGLQSEDEADYYCSAWDQRQFDVVFGGGTKLTVLG

Legend:
[1] = molecular target: Human FXI in normal human plasma (human, UniProt P03951 19-625); experiment: cell-based or functional assay
[2] = molecular target: B1; experiment: cell-based or functional assay
[3] = molecular target: B1; experiment: SPR (ProteOn XPR36), NOV1401 amine-coupled on the chip, Fab as analyte 0.125-4 nM, Langmuir 1:1 fit, 25 C; average of n=2
Description: SPR binding experiments were performed on a ProteOn XPR36 instrument (Bio-Rad Laboratories, Inc.) in PBS/T buffer (50 mM phosphate, 150 mM NaCl, pH 7.4, 0.005% v/v Tween-20) at 25° C. […] Unreacted groups were blocked by injecting 1 M ethanolamine.
Blank surfaces were used for background corrections. There was no need to regenerate surfaces since the ProteOn protein interaction array system allows to run up to six binding experiments on an identical surface in parallel.
Data processing and analysis including kon, koff, and KD determination were performed with the ProteOn Manager™ software version 3.1.0.6. Sensorgrams were fitted by applying a Langmuir 1:1 binding model (Rmax set at global) and dissociation constants were calculated from kon and koff.

[4] = molecular target: B1; experiment: cell-based or functional assay; remark: listed apart in the source
[5] = molecular target: B1; experiment: solution equilibrium titration (SET), constant Fab with NOV1401 titrated in solution, free Fab captured on biotinylated NOV1401, 1:1 fit; average of n=2
Description: (§1) After washing the plate again three times, 30 μl of detection reagent (LumiGLO Peroxidase Chemiluminescent Substrate, KPL#54-61-01) was added to each well. Electrochemiluminescence (ECL) signals were generated and detected immediately with a luminescence imager (SpectraMax M5, Molecular Devices, LLC).
(§2) Average ECL-signals were calculated from duplicate measurements within each assay. Data were baseline adjusted by subtracting the lowest value from all data points and plotted against the corresponding antigen concentration.

[6] = molecular target: B1; experiment: Solution equilibrium titration (SET): constant Fab, NOV1401 titrated in solution, free Fab captured on biotinylated NOV1401, luminescence (RLU) read, 1:1 fit
Description: as §1, §2

[7] = molecular target: B1; experiment: solution equilibrium titration (SET), constant Fab with NOV1401 titrated in solution, free Fab captured on biotinylated NOV1401, 1:1 fit; average of n=3
Description: as §1, §2

Human FXI in normal human plasma, sequence (P03951 19-625 C226S limits assumed): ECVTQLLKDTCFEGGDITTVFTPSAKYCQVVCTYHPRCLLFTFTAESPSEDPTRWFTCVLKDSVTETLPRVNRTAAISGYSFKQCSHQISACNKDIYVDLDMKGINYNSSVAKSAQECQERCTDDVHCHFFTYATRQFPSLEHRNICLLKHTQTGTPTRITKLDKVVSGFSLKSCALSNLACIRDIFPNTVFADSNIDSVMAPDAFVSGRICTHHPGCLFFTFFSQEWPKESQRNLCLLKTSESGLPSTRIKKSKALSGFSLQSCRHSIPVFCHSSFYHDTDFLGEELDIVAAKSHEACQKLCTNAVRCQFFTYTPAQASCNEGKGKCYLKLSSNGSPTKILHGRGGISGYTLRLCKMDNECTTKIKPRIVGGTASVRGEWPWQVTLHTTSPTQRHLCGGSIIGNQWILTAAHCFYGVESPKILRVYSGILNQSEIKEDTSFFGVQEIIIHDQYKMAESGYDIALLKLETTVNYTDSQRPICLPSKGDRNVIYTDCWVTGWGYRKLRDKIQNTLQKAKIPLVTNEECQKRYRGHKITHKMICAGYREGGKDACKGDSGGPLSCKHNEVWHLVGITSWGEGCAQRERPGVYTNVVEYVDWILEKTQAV

IC50 of NOV1401 for reduction of peak thrombin in the TGA in human plasma [1] [nM] | percentage reversal of NOV1401 aPTT prolongation, NOV1401/anti NOV1401 ratio 1/1 (n/n) [2] [%] | percentage reversal of NOV1401 aPTT prolongation, NOV1401/anti NOV1401 ratio 1/3 (n/n) [2] [%] | percentage reversal of NOV1401 aPTT prolongation, NOV1401/anti NOV1401 ratio 1/10 (n/n) [2] [%] | Kd [3] [nM] | percentage reversal of the NOV1401 effect on thrombin generation (TGA), NOV1401/anti NOV1401 ratio 1/1 (n/n) [4] [%] | percentage reversal of the NOV1401 effect on thrombin generation (TGA), NOV1401/anti NOV1401 ratio 1/3 (n/n) [4] [%] | percentage reversal of the NOV1401 effect on thrombin generation (TGA), NOV1401/anti NOV1401 ratio 1/10 (n/n) [4] [%] | Kd [5] [nM] | Kd [6] [nM] | Kd [7] [nM] | Binder
50 |  |  |  |  |  |  |  |  |  |  | B1
 | 9 | 22 | 38 | 10.1 | 18 | 41 | 37 |  |  |  | IDT6 anti-NOV1401 Fab (Fab, V domains shown, Human Fab with a lambda light chain; The heavy chain entry is VH-CH1 (Fd); also called antidote) VH: QVQLVQSGAEVKKPGESLKISCKGSGYSFTNYWIGWVRQMPGKGLEWMGIIFPGVSYTKYSPSFQGQVTISADKSISTAYLQWSSLKASDTAMYYCARGSDQTLRGSRAMDYWGQGTLVTVSS VL: QSALTQPASVSGSPGQSITISCTGTSSDVGISNYVSWYQQHPGKAPKLMIYEVSNRPSGVSNRFSGSKSGNTASLTISGLQAEDEADYYCQSYTSLNYVFGGGTKLTVLG
 | 12 | 45 | 64 | 0.44 | 49 | 55 | 55 | 0.11 |  |  | IDT1 anti-NOV1401 Fab (Fab, V domains shown, The heavy chain entry is VH-CH1 (Fd); also called antidote) VH: QVQLLESGGGLVQPGGSLRLSCAASGFTFSDYAMSWVRQAPGKGLEWVSVIDYSSSNTYYADSVKGRFTISRDNSKNTLYLQMNSLRAEDTAVYYCAREGYSYRSIRFDYWGQGTLVTVSS VL: DIQMTQSPSSLSASVGDRVTITCRASQSISSNLNWYQQKPGKAPKLLIYAASNLQSGVPSRFSGSGSGTDFTLTISSLQPEDFATYYCLQFDHTPFTFGQGTKVEIKR
 | 9 | 35 | 58 | 0.24 | 31 | 47 | 67 | 0.1 |  |  | IDT3 anti-NOV1401 Fab (Fab, V domains shown, Human Fab; The heavy chain entry is VH-CH1 (Fd); also called antidote) VH: QVQLVESGGGLVKPGGSLRLSCAASGFTFQSAAVHWVRQAPGKGLEWVGRIKSKADGGTTDYAAPVKGRFTISRDDSKNTLYLQMNSLKTEDTAVYYCARDSPSISSYSIPYFSGMDVWGQGTLVTVSS VL: DIQMTQSPSSLSASVGDRVTITCRASQGIRAWLNWYQQKPGKAPKLLIYAASSLQSGVPSRFSGSGSGTDFTLTISSLQPEDFATYYCHQYITHPPTFGQGTKVEIKR
 | 16 | 37 | 54 | 0.33 | 50 | 66 | 71 | 0.96 | 0.16 |  | IDT7 anti-NOV1401 Fab (Fab, V domains shown, Human Fab; The heavy chain entry is VH-CH1 (Fd); also called antidote) VH: QVQLVESGGGLVKPGGSLRLSCAASGFTFSSNAMHWVRQAPGKGLEWVGRIKSKTDGGTTDYAAPVKGRFTISRDDSKNTLYLQMNSLKTEDTAVYYCARDHYYYPFAYWGQGTLVTVSS VL: DIQMTQSPSSLSASVGDRVTITCRASQSIRYNLAWYQQKPGKAPKLLIYAASSLQSGVPSRFSGSGSGTDFTLTISSLQPEDFATYYCHQYIAKPITFGQGTKVEIKR
 | 10 | 25 | 46 | 1.92 | 41 | 61 | 72 | 0.68 |  |  | IDT9 anti-NOV1401 Fab (Fab, V domains shown, Human Fab; The heavy chain entry is VH-CH1 (Fd); also called antidote) VH: QVQLVQSGAEVKKPGASVKVSCKASGYTFTNYYVHWVRQAPGQGLEWMGWINPYNGNTNYAQKFQGRVTMTRDTSISTAYMELSRLRSEDTAVYYCARGASSIRMSYYLDVWGQGTLVTVSS VL: DIQMTQSPSSLSASVGDRVTITCRASQSISNYLNWYQQKPGKAPKLLIYAASNLQSGVPSRFSGSGSGTDFTLTISSLQPEDFATYYCFQYTHSPATFGQGTKVEIKR
 | 10 | 27 | 39 | 0.31 | 33 | 53 | 60 | 0.97 |  |  | IDT4 anti-NOV1401 Fab (Fab, V domains shown, Human Fab; The heavy chain entry is VH-CH1 (Fd); also called antidote) VH: QVQLVESGGGLVKPGGSLRLSCAASGFTFSSAAVHWVRQAPGKGLEWVGRIKSKASGGTTDYAAPVKGRFTISRDDSKNTLYLQMNSLKTEDTAVYYCARDSPSISSYSIPYFSGMDVWGQGTLVTVSS VL: DIQMTQSPSSLSASVGDRVTITCRASQGIRAWLNWYQQKPGKAPKLLIYAASSLQSGVPSRFSGSGSGTDFTLTISSLQPEDFATYYCHQYITHPPTFGQGTKVEIKR
 | 17 | 42 | 56 | 0.35 | 55 | 56 | 72 |  |  | 0.14 | IDT5 anti-NOV1401 Fab (Fab, V domains shown, Human Fab; The heavy chain entry is VH-CH1 (Fd); also called antidote) VH: QVQLVESGGGLVKPGGSLRLSCAASGFTFSSAAVHWVRQAPGKGLEWVGRIKSKADAGTTDYAAPVKGRFTISRDDSKNTLYLQMNSLKTEDTAVYYCARDSPSISSYSIPYFSGMDVWGQGTLVTVSS VL: DIQMTQSPSSLSASVGDRVTITCRASQGIRAWLNWYQQKPGKAPKLLIYAASSLQSGVPSRFSGSGSGTDFTLTISSLQPEDFATYYCHQYITHPPTFGQGTKVEIKR
 | 12 | 25 | 40 | 5.97 | 37 | 45 | 57 | 1.19 |  |  | IDT10 anti-NOV1401 Fab (Fab, V domains shown, Human Fab; The heavy chain entry is VH-CH1 (Fd); also called antidote) VH: QVQLVQSGAEVKKPGASVKVSCKASGYTFTNYYVHWVRQAPGQGLEWMGWINPYSGNTNYAQKFQGRVTMTRDTSISTAYMELSRLRSEDTAVYYCARGASSIRMSYYLDVWGQGTLVTVSS VL: DIQMTQSPSSLSASVGDRVTITCRASQSISNYLNWYQQKPGKAPKLLIYAASNLQSGVPSRFSGSGSGTDFTLTISSLQPEDFATYYCFQYTHSPATFGQGTKVEIKR
 | 8 | 25 | 42 | 2.15 | 41 | 56 | 69 |  | 0.96 | 0.16 | IDT8 anti-NOV1401 Fab (Fab, V domains shown, Human Fab; The heavy chain entry is VH-CH1 (Fd); also called antidote) VH: QVQLVESGGGLVKPGGSLRLSCAASGFTFSSNAMHWVRQAPGKGLEWVGRIKSKTSGGTTDYAAPVKGRFTISRDDSKNTLYLQMNSLKTEDTAVYYCARDHYYYPFAYWGQGTLVTVSS VL: DIQMTQSPSSLSASVGDRVTITCRASQSIRYNLAWYQQKPGKAPKLLIYAASSLQSGVPSRFSGSGSGTDFTLTISSLQPEDFATYYCHQYIAKPITFGQGTKVEIKR
